In the nanobody polyreactivity screen of Harvey et al. (2022):

Experiment: yeast display, Sf9 membrane polyspecificity reagent, FACS + sequencing; frameworks hold sequencing errors
Summary of the method: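 In a synthetic yeast display library (Saccharomyces cerevisiae BJ5465), nanobody expression was induced with galactose for 36–48 hours. FACS gates were set low and high (top ~1%) using anti-HA fluorescence for expression and streptavidin fluorescence for binding of the Sf9 membrane reagent. Each polyreactivity label is drawn from the gate of origin.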

Row | Sequence | polyreactivity (PSR sort gate)
1 | QVQLVESGGGLVQAGGSLRLSCAASGIIFQYNAMGWYRQAPGKEREFVAAISYGGTSTYYADSVKGRFTISRDNAKNTVYLQMNSLKPEDTAVYYCAADYQGYTPSDGRYYWGQGTQVTVSS | low polyreactivity
2 | QVQLVESGGGLVQAGGSLRLSCAASGRIFKYYAMGWYRQAPGKERELVARISSRGGSTNYADSVKGRFTISRDNAKNTVYLQMNSLKPEDTAVYYCAAQYQNFPYGYWGQGTQVTVSS | high polyreactivity
3 | QVQLVESVGGLVQAGGSLRLSGAASGSTFGRYAMGWSRQAPGKEREFVANISWSDGSTNYADSVKGRFTISRDHAKNTVYFQMNSLKPEDTAVYYCATGLGYTAFGKEVYDWHDYWGQGTQVTVSS | low polyreactivity
4 | QVQLVESGGGLVQAGGSLRLSCAASGFIFDDYAMGWNRQAPGKERELVAAITDSGDGTDYADSVKGRFTISRDNAKNTVYLQMNSLKPEDTAVYYCAAGLWYSYDYWGQGTQVTVSS | high polyreactivity
5 | QVQLVESGGGLVQAGGSLRLSCPASGRTFYKNAMGWYRQAPGKERELVAAITSGGSTNYADSVKGRFTISRDNAKNTVYLQMNSLKSEDTAVYYCAAQQFPYYRSRYSYINKYDYWGQGTQVTVSS | high polyreactivity
6 | QVQLVESGGGLVQAGGSLRLSCAASGRIFPEYAMGWYRQAPGKERELVAAITSGGHYADSVKGRFTISRDNAKNTVYLQINSLKPEDTAVYYCSALNVYGSADVTTLEMDYWGQGTLVTVSS | low polyreactivity
7 | QVQLVESGGGLVQAGGSLRLSCAASGSIFAYYAMGWYRQAPGKERELVAAITSGDSTYYADSVKGRFTISRDNAKNTVYLQMNSLKPEDTAVYYCAADVSWRSNWYDYWGQGTQVTVSS | low polyreactivity
8 | QVQLVESGGGLVQAGGSLRLSCAASGRIFGRYGMGWYRQAPGKERELVAAISRSGDRTYYADSVKGRFTISRDNAKNTVYLQMNSLKPEDTAVYYCAAYSYRYDYWGQGTQVTVSS | high polyreactivity
9 | QVQLVESGGGLVQAGGSLRLSCAASGFTFYYYTMGWYRQAPGKEREFVAAITSSGGRTNYADSVKGRFTISRDNAKNIVYLQMNRLKPEDTAVYYCAATYIRYDHYRPRGGYWGQGTQVTVSS | high polyreactivity
10 | QVQLVESGGGLVQAGGSLRLSCAASGITFRVYAMGWYRQAPGKERELVADISGTGGSTYYADSVKGRFTISRDYAKNTVYLQMNSLKPEDTAVYYCAAVYGFYYSFLQDSYGYWGQGTQVTVSS | low polyreactivity
11 | QVQLVESGGGLVQAGGSLRLSCAASGRTFGLYTKAWYIQAPGKERELVAAISSGGITYYADSVKGRFTISRDNAKNTVYLQMNSLKPEDTAVYYCAADFRTTRRYNYRYNYWGQGTQVTVSS | high polyreactivity
12 | QVQLVESGGGLVQAGGSLRLSCAASGSTFGYNGMGWFRQAPGKERELVAAISGGARTYADSVKGRFTISRDNAKNTVYLQMNSLKPEDTAVYYCAAGVFHIFSRGNYDPSEYEYWGQGTQVTVSS | low polyreactivity
13 | QVQLVESGGGLVQAVGSLRLSCAASGLTFYIYVMGCYRQAPGKERELVAAISGSGGSTYYADSVKGRFTISRDNAKNTVYLHLNSLKLEDTALYYCNAEDWWRYLRGEDDYWGQGTQVTVSS | high polyreactivity
14 | QVQLVESGGGLVQAGVRLRLSCPASGITFEGYAMGWYRKAPGKERELVAAIRSSGTSTYYADSVKGRFTISRDNAKNTVYLQMNSLKPEDTAVYYCNRARSSSRYDYWGQGTKVTVSS | low polyreactivity
15 | QVQLVESGGGLVQAGGSLRLSCAASGSIFGSNMGWYRQAPGKERELVAAISSRGGRTYYADSVKGRFTISRVNAKNTVYLQMNSQKPEDTAVYYCATRTFRGGRGYEYWGQGTQVTVSS | high polyreactivity
16 | QVQLVESGGGLVQAGGSLRLSCAASGSIFGRNAMGWYRQAPGKERELVAVITSTGGSTYYADSVKGRFTISRDNAKNTVYLQMNSLKPEDTAVYYCAARTRYRYGYWGQGTQVTVSS | high polyreactivity
17 | QVQIVESGGVLVQAGGSLRLSCAASGLTLKRYAMGWYRQAPRKERELVASITGSGGSTYADTVKARFTISRDNAKNTVYLHMNSLNPEDTAVYYCAKDTRYEYVGSEYCFWGQGTQVTVSS | low polyreactivity
18 | QVQLVESGGGLVQAGGSLRLSCAASGSTFRDYDMGWYRQAPGKERELVAAISRSGGRTYYADSVKGRFTISRDNAKNTVYLQMNSLKPEDTAVYYCAARRYTRRANPAYPYEYWGQGTQVTVSS | high polyreactivity
19 | QVQLVESGGGLVQAGGSLRLSCAASGRIFGPYTMGWYRQAPGKERELVATISYSGSTTYYADSVKWRFTISRDNAKNTVYLQMNSLKPEDTAVYYCNAQYYVFITFDYWGQGTQGTVSS | high polyreactivity
20 | QVQLVESGGGRDQAGGSLRLSCAASGLTSYSNAMGWFRQAPGKERELVAAISRSGGSTYYADSVKGRFTISRDTAKNSVYLQMISLKAEDSAFYYCAASIWVYLLGGGYSDYDYWGQGTQETVSS | low polyreactivity
21 | QVQLVESGGGLVQAGGSLRLSCAASGRTFYDYAMGWYRQAPGKEREFVARITYSGGGTYYADSVKGRFTISRDNAKNTVYLQMNSLKPEDTAVYYCARPFIRYLGLTRNGYTSDYWGQGTQVTVSS | high polyreactivity
22 | QVQLVESGGGLVQAGGSLRLSCAASGRTFWYYTMGWYRQAPGKEWELVAAIRASGGGTYADSVKGLFTISRDNAKNTVYLQMNSLNPEDTAVYYCAVRNVYGWYGSRDYWGQGTQVTVSS | high polyreactivity

Row | Sequence | polyreactivity (PSR sort gate)
23 | QVQLVESGGGLVQAGGSLRLSCAASGSTFGRYTMGWYRQAPGKERQLVAAISSSGGGTYYADSVKGRLTISRDNAKNTVYLQMNSLKPEDTAVYYCAALGSRRYTRYGLTGFDYWGQGTQVTVSS | high polyreactivity
24 | QVQLEESGGGLVQAGVSLRLSCAASGRIFSSNAMGWYRQAPGKERELVAAITYSAGSTYYAVSVKGRFTISRDNAKNTVYLQMNSLKPEDTAVYYCAADSYYDRTIQFEFYARTYDYWGQGTQVTVSS | low polyreactivity
25 | QVQLVESGGGLVQAGGSLRVSCAASGRTFRGYSMGWSRPAPGKERELVAAISWRGGTTYYADSVKGRFTISRDNAKNTVYLQMNSLKPEDTAVYYCAARRYRISKTSGYWGQGTQVTVSS | high polyreactivity
26 | QVQLVESGGGLDQAGGSLRLSCAASGSIFSTYAMGWYRQAPGKERELVAAISRNGGSTSYADSVKGRFTISRDNAKNTVYLQMNILKPEDTAVYYCNAGVYWPGEFDYWGQGTQVTVSS | high polyreactivity
27 | QVQLVESGGGLVQAGGSLRLSCAASGRTFTTYAMGWYRQAPGKERELVASISGSGGSTYFADSVKGRFTISRDNAKNTVYLQMNSLKPEDTAVYYCATADYYHGGYYYPYDDYWGQGTQVTVSS | low polyreactivity
28 | QVQLVESGGGLVQAGGSLRLSFAASGRTFSGYAMGWYRQAPGKERELVASISGSGSSTYYADSVKGRFTISRDNAKNTVYLQMNSLKPEHTAVYYCNATRAGENPDGGDEYWGQGTQVTVSS | high polyreactivity
29 | QVQLVESGGGLVQAGGSLRLSCAASGSIFISNAMGWYRQAPGKEWELVAAINWTTGRTRYADSVKGRFTISRDNAKNTVYLQMNSLKPEDTAVYYCAARPYGGGRRSIYYYWGQGHQVTVSS | high polyreactivity
30 | QVQLVESGGGLVQAGGSLRLSCAASGRNFEQYAMGWYRQAPGKERELVAAISGSGGSTFYADSVKGRFTISRDNAKNTVYVQMNRLKPEDTAVYYCNAPGDGYLYDHTYDYWGQGTQVTVSS | low polyreactivity
31 | QVQLVESGGGLVQAGGSLRLSCAASGGTFKFYAMGWYRQAPGKERELVAAISRRGGNTYYADSVKGRFTISRDNAKNTVYLQMNSLKPEDTAVYYCAVDYRSTGFGYWGQGTQVTVSS | high polyreactivity
32 | QVQLVESGGGLVQAGGSLRLSCASSGIIFYKYAMGWYRQAPGKERELVAVISRGGGSTYYADSVKGRFTISRDNAKNTVYLQMNSLKPEDTAVYYCAADPRVTRSYTYDYWVQGTQVTVSS | high polyreactivity
33 | QVKLVESGGGLVQAGGSLRLSCAASGSIFVGYAIVWYRQAPGKERELVAAISTRGGSTYYADSVKGRFTISRENAKNTVYLKMNSLTPEDTAVYYCAADYLDSTYGYVYGWDDYWGQGTQVTVSS | low polyreactivity
34 | QVQLVESGGGLVQAGGSLRLSCAASGSTFRHYAMGWYRQAPGKERELVAAISSTGGSTYYADSVKGRFTISRDNAKNTVYLQMNSLKPEDTAVYYCAARRLYWGQGTQVTVSS | high polyreactivity
35 | QVQLVESGGGLVQAGGSLRLSCAASGSTFYRNAMGWYRQAPGKERELVAAISGSDGSTYYADSVKGRFTISRDNAKNTVYLQMNSLKPEDTAVYYCNARRWWVIRDYWGQGTQVTVSS | high polyreactivity
36 | QVQLEESGGGLVQAGGSLRLSCPPSGSTYYVYAMGWYRPAPGKERELVAAIDGGDTYYADSVKGGFTISRDNAMNTVFLQMNSLKPEDTAVYYCAAESLPEISVGLGFWGQGTQVTVSS | low polyreactivity
37 | QVQLVESGGGLVQAGGSLRLSCAASGSTFWGYTMGWYRQAPGKERELVAAITGSGGSTNYADSVKGRFTISRDNANNTVYLQMNSLKPEDTAVYYCATQGITPSNSYDYWGQGTQVTVSS | low polyreactivity
38 | QVQLVESGGGLVQAGGSLRLSCASSGSTFYSYVMGWYRQAPGKERELVAVISNDGSTNYADSVKGRFTISRDNAKNSVYLQMNSLKPEDTAVYYCDALKFVRAYRYYYWGQGTQVTVSS | low polyreactivity
39 | QVQLVESGGGLVQAGGSLRLSCAASGSIFYVYAMGWYRQAPGKERELVAAINTSSGDTYYADSVKGRFTISRDNAKNTVYLQMNSLKPEDTAVYYCNARTRSSYTIGSYLLSYDYWGQGTQVTVSS | high polyreactivity
40 | QVQLVESGGGLVQAGGSLRLSCAASGITFSDNTMGWYRQAPGKERELVAAISWRGGLTYYADSVKGRFTISRDNAKNTVYLQMNSVKPEDTAVYYCIAVTSSKARYSSYDYWGQGTQVTVSS | high polyreactivity
41 | QVQLVESGGGLVQAGGSLRLSCAASGITYRYNAMGWYRQAPGKEREMVAAISTSGGNTYYADSVKGRFTISRDNAKYTVYLQLNSLKPEDTAVYYCAVDGEYWYDYDGDYWGQGTQVTVSS | low polyreactivity
42 | QVQLVESGGGLVQAGGSLRLSCAASGFISDDYAMGWYRQAPGKERELVAAISDSGVDTYYADSVKGRFTISRDNAKNTVYLLMNSLKPEDTAVYYCATLTYASNRYGYWGQGTHVTVSS | low polyreactivity
43 | QVQLVESGGGLVQAGGSLRLSCAASGSTFKRNVMGWYRQAPGKERELVAAISRSTTSTYYADSVKGRFTISRDNAKNTVYLQMNSLKPEDTAVYYCATPHRYRVDYWGQGTQVTVSS | high polyreactivity
